Data set [1] has as its target T1, c-Met ectodomain-Fc fusion (HGFR) (UniProt P08581 P08581:25-932). The data set is described as follows: filter; competition vs 32P-trCLN3; PBS pH 7.4, 3 mM MgCl2, tRNA 1 mg/ml, BSA 1 mg/ml, 37 C. The conditions noted are these: tags: human IgG1 Fc fusion; His (detected with anti-penta-His); R&D Systems; chain copies: 2; label: biotin; G4. On the procedure: (§1) To determine the affinity, ˜10 fmol of radiolabeled aptamer was incubated with protein dilution series for 30 min at 37° C. in 25 μL of buffer containing 1 mg/ml E. coli tRNA (Roche, Mannheim, Germany), 1 μg/ml BSA, 3 mM MgCl₂ in PBS, pH 7.4. For Sec7, 0.005% Triton X-100 was added and for c-Met-Fc, 1 mg/ml of BSA was used instead of 1 μg/ml. The aptamer-protein complexes were captured on a Protran™ nitrocellulose membrane (GE Healthcare) that was pre-incubated in 0.4 M KOH for 10 minutes, followed by washing with ddH₂O and PBS containing 3 mM MgCl₂, pH 7.4. After addition of the aptamer-protein solution, the filter was washed 4 times with PBS containing 3 mM MgCl₂, pH 7.4. Radioactivity was quantified using a Fujifilm Fla-3000 PhosphorImager and AIDA software package. The percentage of bound aptamer was calculated using equation 1: […]

Data set [2] has as its target T1, c-Met ectodomain-Fc fusion (HGFR). The data set is described as follows: filter; competition vs 32P-trCLN3; PBS pH 7.4, 3 mM MgCl2, tRNA, BSA, 37 C; nanomolar affinity stated. The conditions noted are these: tags: human IgG1 Fc fusion; His (detected with anti-penta-His); R&D Systems; chain copies: 2; label: 5'-32P for radiolabeled tracer; G4 (two G-quadruplexes).
Data set [3] has the same target. The data set is described as follows: filter; no binding in tested range; in photo-crosslinking 24-fold lower signal than ABAL-trCLN3 at 500 nM c-Met (p87). The conditions noted are these: tags: human IgG1 Fc fusion; His (detected with anti-penta-His); R&D Systems; chain copies: 2; label: biotin. On the procedure: as §1
Data set [4] addresses T2, Cytohesin-2 Sec7 domain (UniProt Q99418 Q99418:72-201).
T2 sequence: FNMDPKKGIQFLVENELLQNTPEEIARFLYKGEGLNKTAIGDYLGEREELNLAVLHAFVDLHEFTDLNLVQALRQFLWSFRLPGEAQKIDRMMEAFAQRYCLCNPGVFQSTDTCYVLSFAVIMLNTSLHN
The data set is described as follows: filter; competition vs 32P-C10.35; IC50 only in figure; 3 mM MgCl2 in PBS, 0.005% Triton X-100, 37 C. The conditions noted are these: tags: His (detected with anti-penta-His); expressed in E. coli; label: 5'-32P for radiolabeled tracer; stem with a double bulge. The protocol: (§2) To determine the affinity, ˜10 fmol of radiolabeled aptamer was incubated with protein dilution series for 30 min at 37° C. in 25 μL of buffer containing 1 mg/ml E. coli tRNA (Roche, Mannheim, Germany), 1 μg/ml BSA, 3 mM MgCl₂ in PBS, pH 7.4. For Sec7, 0.005% Triton X-100 was added and for c-Met-Fc, 1 mg/ml of BSA was used instead of 1 μg/ml. The aptamer-protein complexes were captured on a Protran™ nitrocellulose membrane (GE Healthcare) that was pre-incubated in 0.4 M KOH for 10 minutes, followed by washing with ddH₂O and PBS containing 3 mM MgCl₂, pH 7.4. After addition of the aptamer-protein solution, the filter was washed 4 times with PBS containing 3 mM MgCl₂, pH 7.4. Radioactivity was quantified using a Fujifilm Fla-3000 PhosphorImager and AIDA software package. The percentage of bound aptamer was calculated using equation 1:
(§3) Filter retention assays in which the 5′-functionalized aptamer competed with the non-functionalized aptamer for binding to Sec-7 were performed as described above to test the influence of the 5′-functionalization on aptamer binding.

In data set [5] the target is T2, Cytohesin-2 Sec7 domain. The data set is described as follows: 365 nm photo-crosslinking, Western blot; marginal at highest concentration only; no band in H460 lysate (p104). To be noted: tags: His (detected with anti-penta-His); expressed in E. coli; label: biotin. The protocol: Incubation of the target protein Sec7 with the 5′-functionalized aptamer C10.35 was performed by mixing 250 nM of the aptamer with different protein concentrations at 37° C. for 30 min as described in Examples 2 and 4. Crosslinking also was performed on ice by illuminating at 365 nm for 10 minutes.
Further, the amount of cross-linking of the 5′-functionalized aptamer C 10.35 to Sec-7 was investigated after incubating […] 167 nm, 56 nm and 19 nM Sec-7 with 250 nM of the 5′-functionalized aptamers C10.35 and C10.35 C15T, followed by UV irradiation at 365 nm using SDS-PAGE, followed by western blotting using neutravidin-dylight™ 800 (Thermo Scientific) to visualize biotinylated proteins. Anti-penta-his (1:2000, Qiagen) was used to visualize the total amount of Sec7 and goat-anti-mouse-IgG-dylight™ 800 (Thermo Scientific) was used as a secondary antibody. The blots were scanned at 800 nm using an Odyssey scanner (Li-cor Biotechnology, Bad Homburg, Germany).

The target of data set [6] is T2, Cytohesin-2 Sec7 domain. The data set is described as follows: filter; affinity not altered vs unfunctionalized C10.35; high UV cross-linking; also cross-links in H460 lysate (p104). The conditions noted are these: tags: His (detected with anti-penta-His); expressed in E. coli; label: biotin; stem with a double bulge. On the procedure:
as §2, §3

T1 sequence (P08581 25-932, one chain of several): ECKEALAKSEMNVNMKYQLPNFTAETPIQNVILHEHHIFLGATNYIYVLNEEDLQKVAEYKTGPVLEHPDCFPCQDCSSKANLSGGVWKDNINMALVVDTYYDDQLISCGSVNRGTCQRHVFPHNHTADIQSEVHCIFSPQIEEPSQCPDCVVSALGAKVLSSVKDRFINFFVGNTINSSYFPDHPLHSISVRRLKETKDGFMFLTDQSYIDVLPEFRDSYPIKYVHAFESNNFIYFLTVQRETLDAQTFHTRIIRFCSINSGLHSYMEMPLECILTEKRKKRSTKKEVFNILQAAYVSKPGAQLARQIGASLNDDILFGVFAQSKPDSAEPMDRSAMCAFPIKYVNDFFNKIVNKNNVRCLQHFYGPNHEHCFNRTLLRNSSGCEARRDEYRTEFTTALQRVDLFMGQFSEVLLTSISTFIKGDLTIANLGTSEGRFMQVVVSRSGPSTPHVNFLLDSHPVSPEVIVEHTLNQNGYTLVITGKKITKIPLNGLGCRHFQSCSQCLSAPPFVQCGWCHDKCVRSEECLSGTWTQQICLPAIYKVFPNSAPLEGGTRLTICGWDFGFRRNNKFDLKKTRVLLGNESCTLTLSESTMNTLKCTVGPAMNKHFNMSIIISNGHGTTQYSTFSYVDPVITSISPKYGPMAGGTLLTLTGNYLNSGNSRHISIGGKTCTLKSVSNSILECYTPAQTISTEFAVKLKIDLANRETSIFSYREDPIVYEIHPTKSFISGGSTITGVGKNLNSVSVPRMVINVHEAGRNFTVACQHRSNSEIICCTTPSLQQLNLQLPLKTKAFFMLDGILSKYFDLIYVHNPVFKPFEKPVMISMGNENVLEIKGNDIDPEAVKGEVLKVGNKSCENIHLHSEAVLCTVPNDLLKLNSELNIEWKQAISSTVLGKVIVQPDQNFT

In the case of TGGATGGTAGCTCGGTCGGGGTGGGTGGGTTGGCAAGTCT (ssDNA, 5'-hexylamine coupled Sulfo-SBED (phenyl azide, biotin)) [ABAL-trCLN3], in data set [1], the IC50 (in general, the concentration that inhibits the measured activity by half) was determined as 50 nM.
In data set [2], TGGATGGTAGCTCGGTCGGGGTGGGTGGGTTGGCAAGTCT (ssDNA) [trCLN3] registered an IC50 of 76 nM.
For the molecule TGGATGGTAGCTCGGTCGGGGTGGATGGGTTGGCAAGTCT (ssDNA, 5'-hexylamine coupled Sulfo-SBED (phenyl azide, biotin)) [ABAL-trCLN3 G25A], the binding result in data set [3] is “no binding”.
With ACTCGGGAGGACTGCTTAGGATTGCGAACCCGGGT (ssDNA) [C10.35], in the data set with Cytohesin-2 Sec7 domain [4], the binding result is given as “binds”.
ACTCGGGAGGACTGTTTAGGATTGCGAACCCGGGT (ssDNA, 5'-hexylamine coupled Sulfo-SBED (phenyl azide, biotin)) [ABAL-C10.35 C15T]: in the data set with Cytohesin-2 Sec7 domain [5], the binding signal was 7 fold lower cross-linking than ABAL-C10.35.
For ACTCGGGAGGACTGCTTAGGATTGCGAACCCGGGT (ssDNA, 5'-hexylamine coupled Sulfo-SBED (phenyl azide, biotin)) [ABAL-C10.35], the binding result in the data set with Cytohesin-2 Sec7 domain [6] was “binds”.

The values above are taken from US20170059576, “METHOD OF DETERMINING A PROTEIN IN A SAMPLE” (RHEINISCHE FRIEDRICH-WILHELMS UNIVERSITAT BONN, published 2017).
